{"source": "patent US20130202594A1", "about": "“ALK1 Antagonists and Their Uses in Treating Renal Cell Carcinoma” (priority 2012, published 2013)", "key": {"[1]": {"experiment": "Size exclusion chromatography of ALK1-Fc preparations (dimers vs aggregates)", "format": "physicochemical", "experimental": "The R&D Systems material contains approximately 13% aggregated protein, as shown by the peaks on the left hand side of the graph, as well as some lower molecular weight species. The material of SEQ ID NO:3 is greater than 99% composed of dimers of the appropriate molecular size.\nIn one approach, a number of different cell culture media were tested. […] The resulting material is comprised of greater than 99% dimers. […] Having identified aggregate formation as a significant problem in ALK1-Fc production, it is expected that other approaches may be developed, including approaches that involve additional purification steps (although such approaches may result in lower yield of purified protein)."}, "[2]": {"target": "T1, GDF7 (Homo sapiens, UniProt Q7Z4P5)", "T1 sequence (Q7Z4P5 322-450)": "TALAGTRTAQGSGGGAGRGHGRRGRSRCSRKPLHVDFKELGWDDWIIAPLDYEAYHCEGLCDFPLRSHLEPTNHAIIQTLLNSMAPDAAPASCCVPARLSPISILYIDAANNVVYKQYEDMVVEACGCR", "experiment": "Biacore binding to hALK1-Fc: GDF7", "experimental": "(§1) ALK1 is a type 1 receptor for ligands of the TGFβ family. Multiple members of the TGFβ family were tested for binding to a human ALK1-Fc fusion protein, using a Biacore™ system."}, "[3]": {"target": "TGFβ (Homo sapiens, UniProt P01137)", "sequence (P01137 279-390)": "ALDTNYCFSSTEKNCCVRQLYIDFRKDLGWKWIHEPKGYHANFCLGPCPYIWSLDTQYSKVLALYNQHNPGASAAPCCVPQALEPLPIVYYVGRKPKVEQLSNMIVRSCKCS", "experiment": "Biacore binding to hALK1-Fc: TGFβ", "experimental": "as §1"}, "[4]": {"target": "T2, BMP4 (Homo sapiens, UniProt P12644)", "T2 sequence (P12644 293-408)": "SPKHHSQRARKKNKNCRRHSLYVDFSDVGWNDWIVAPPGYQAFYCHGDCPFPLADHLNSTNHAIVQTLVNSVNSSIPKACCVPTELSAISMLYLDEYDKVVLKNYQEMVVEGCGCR", "experiment": "Biacore binding to hALK1-Fc: BMP4", "experimental": "as §1"}, "[5]": {"tested_on": "angiogenesis in chick chorioallantoic membrane", "experiment": "CAM (chick chorioallantoic membrane) angiogenesis assay", "format": "in vivo", "source_text": "In preferred embodiments, an ALK1 ECD polypeptide binds to one or more of GDF5, GDF6, GDF7, BMP9 and BMP10. […] Binding may be assessed using purified proteins in solution or in a surface plasmon resonance system, such as a Biacore™ system. […] Bioassays for angiogenesis inhibitory activity include the chick chorioallantoic membrane (CAM) assay, the mouse corneal micropocket assay, or an assay known in the art for measuring the effect of administering isolated or synthesized proteins on implanted tumors. The CAM assay is described by O'Reilly, et al., in “Angiogenic Regulation of Metastatic Growth” Cell, 1994; 79 (2):315-328. Briefly, 3 day old chicken embryos with intact yolks are separated from the egg and placed in a petri dish. After 3 days of incubation, a methylcellulose disc containing the protein to be tested is applied to the CAM of individual embryos. After 48 hours of incubation, the embryos and CAMs are observed to determine whether endothelial growth has been inhibited. The mouse corneal micropocket assay involves implanting a growth factor-containing pellet, along with another pellet containing the suspected endothelial growth inhibitor, in the cornea of a mouse and observing the pattern of capillaries that are elaborated in the cornea. Other assays are described in the Examples.\nVEGF and FGF are well-known to stimulate angiogenesis. A CAM (chick chorioallantoic membrane) assay system was used to assess the angiogenic effects of GDF7.\nALK1-Fc fusions were tested for anti-angiogenic activity in the CAM assay.\nALK1-Fc proteins and a commercially available, anti-angiogenic anti-VEGF monoclonal antibody were compared in the CAM assay. The ALK1-Fc proteins had similar potency as compared to anti-VEGF. The anti-VEGF antibody bevacizumab is currently used in the treatment of cancer and macular degeneration in humans."}, "[6]": {"tested_on": "MDA-MB-231 cell line", "experiment": "MDA-MB-231-Luc orthotopic breast cancer xenograft", "format": "in vivo, mouse", "conditions": "similar experiment; dose levels as low as 3 mg/kg", "source_text": "The MDA-MB-231 breast cancer cell line (derived from ER− cells) was stably transfected with the luciferase gene to allow for the in vivo detection of tumor growth and potential metastasis. In this study, 1×10^6 MDA-MB-231-Luc cells were implanted orthotopically in the mammary fat pad of athymic nude mice (Harlan). Tumor progression was followed by bioluminescent detection using an IVIS Spectrum imaging system (Caliper Life Sciences). An increase in the luminescence (number of photons detected) corresponds to an increase in tumor burden.\nThirty female nude mice were injected with 1×10^6 tumor cells into the mammary fat pad. Three days after tumor implantation the mice were treated with either vehicle control or mALK1-Fc (30 mg/kg) twice per week by subcutaneous (SC) injection. […] This may be expected of an antiangiogenic compound in that tumors may be able to survive to a certain size before requiring new blood vessel formation to support continued growth."}, "[7]": {"tested_on": "BMP10 signaling (Smad1/5/8 reporter) in T98G cells", "experiment": "BMP10 signaling reporter assay in T98G cells transfected with ALK1", "format": "cell-based, human", "conditions": "65 ng/ml, BMP10 1 ng/ml", "experimental": "Effects of hALK-Fc on BMP10 signaling were determined in a cell-based assay, in which human glioblastoma T98G cells were transfected with three plasmids: 1) an expression construct encoding full-length ALK1; 2) a firefly-luciferase reporter construct (see Example 3) responsive to Smad1/5/8-mediated signaling, and 3) a Renilla-luciferase control construct. Treatment of transfected cells with recombinant human BMP10 (1 ng/ml) strongly stimulated firefly luciferase activity relative to Renilla luciferase activity (FIG. 16). Omission of the ALK1 expression construct reduced BMP10-stimulated activity by approximately two-thirds (data not shown), thus implicating ALK1 as a major mediator of the BMP10 signal. Treatment of fully transfected cells with hALK1-Fc (65 ng/ml) and BMP10 (1 ng/ml) reduced the transcriptional response compared to BMP10 alone by more than 80% (FIG. 16)."}}, "note": "Entries after “also recorded” stand apart in the source; their conditions may differ."}
{"substance": "hALK1-Fc: extracellular domain of human ALK1 (amino acids 22-120) fused to a human IgG1 Fc with a minimal linker (SEQ ID NO:3/14)", "values": [{"measurement": "dimers", "setting": "[1]", "value": "greater than 99%"}, {"measurement": "Kd", "setting": "[2]", "value": "~50", "unit": "nM"}, {"measurement": "binding to hALK1-Fc", "setting": "[3]", "value": "failed to show substantial binding"}, {"measurement": "binding to hALK1-Fc", "setting": "[4]", "value": "failed to show substantial binding; also recorded: only limited binding"}, {"measurement": "anti-angiogenic effect compared with anti-VEGF monoclonal antibody", "setting": "[5]", "value": "comparable to the effects of the anti-VEGF antibody"}, {"measurement": "anti-angiogenic effect on angiogenesis stimulated by VEGF, FGF and GDF7", "setting": "[5]", "value": "inhibits angiogenesis stimulated by VEGF, FGF and GDF7"}, {"measurement": "tumor progression (bioluminescence)", "setting": "[6]", "value": "similar, if slightly lesser, effects"}, {"measurement": "reduction of transcriptional response compared to BMP10 alone", "setting": "[7]", "value": "more than 80%"}]}
